Measured values published in patent US20200071417A1 (MARENGO THERAPEUTICS, published 2020).

Columns and labels:
mouse CCR2 = biological target: T1, mouse CCR2 (mouse, UniProt P51683 1-373); experiment: flow cytometry on transiently transfected ExpiCHO cells expressing mouse CCR2 only
T1 construct: whole, on cells; the mouse protein was used in the assays; also called mCCR2
Method: (§1) ExpiCHO cells were transiently transfected with mouse CCR2, mouse CSF1R, or both mouse CCR2 and CSF1R, according to the manufacturer's instructions. In brief, the transfections were performed with ExpiCHO cells at a cell density of 5.6-6.3×10⁶ cells/mL and at least 95% viability. For each transfection, 25 μg of DNA was diluted with 1 mL of OptiPro SFM (Gibco 12309050) and filtered using spin-X centrifuge tube filters (Corning 8160). A solution of 920 μL of OptiPro and 80 μL of expifectamine was added to the filtered DNA, incubated for 1 minute at room temperature, and then added to the cells. On day 1 of the transfection, the cells were enhanced using 150 μL of ExpiCHO enhancer.
(§2) On day 2 of the transfection, the cells were washed with PBS containing 1% BSA (Sigma) and used to set 96-well V-bottom plates (Biotix AP-0350-9CVS) with 100,000 cells/well. UniTI-01 was added to the cells in serial dilutions and incubated for 1 hour at 4° C. The plates were washed twice with PBS containing 1% BSA. […] The plates were read on a CytoFLEX S (Beckman Coulter). Data were calculated as the median fluorescence intensity of the PE-positive population vs. the median fluorescence intensity of the PE-negative population. The data was normalized for the percent of total median fluorescence intensity. […]

mouse CSF1R = biological target: T2, mouse CSF1R (mouse, UniProt P09581 20-977); experiment: flow cytometry on transiently transfected ExpiCHO cells expressing mouse CSF1R only
T2 construct: whole, on cells; the mouse protein was used in the assays; also called mCSF1R
T2 sequence (looked up): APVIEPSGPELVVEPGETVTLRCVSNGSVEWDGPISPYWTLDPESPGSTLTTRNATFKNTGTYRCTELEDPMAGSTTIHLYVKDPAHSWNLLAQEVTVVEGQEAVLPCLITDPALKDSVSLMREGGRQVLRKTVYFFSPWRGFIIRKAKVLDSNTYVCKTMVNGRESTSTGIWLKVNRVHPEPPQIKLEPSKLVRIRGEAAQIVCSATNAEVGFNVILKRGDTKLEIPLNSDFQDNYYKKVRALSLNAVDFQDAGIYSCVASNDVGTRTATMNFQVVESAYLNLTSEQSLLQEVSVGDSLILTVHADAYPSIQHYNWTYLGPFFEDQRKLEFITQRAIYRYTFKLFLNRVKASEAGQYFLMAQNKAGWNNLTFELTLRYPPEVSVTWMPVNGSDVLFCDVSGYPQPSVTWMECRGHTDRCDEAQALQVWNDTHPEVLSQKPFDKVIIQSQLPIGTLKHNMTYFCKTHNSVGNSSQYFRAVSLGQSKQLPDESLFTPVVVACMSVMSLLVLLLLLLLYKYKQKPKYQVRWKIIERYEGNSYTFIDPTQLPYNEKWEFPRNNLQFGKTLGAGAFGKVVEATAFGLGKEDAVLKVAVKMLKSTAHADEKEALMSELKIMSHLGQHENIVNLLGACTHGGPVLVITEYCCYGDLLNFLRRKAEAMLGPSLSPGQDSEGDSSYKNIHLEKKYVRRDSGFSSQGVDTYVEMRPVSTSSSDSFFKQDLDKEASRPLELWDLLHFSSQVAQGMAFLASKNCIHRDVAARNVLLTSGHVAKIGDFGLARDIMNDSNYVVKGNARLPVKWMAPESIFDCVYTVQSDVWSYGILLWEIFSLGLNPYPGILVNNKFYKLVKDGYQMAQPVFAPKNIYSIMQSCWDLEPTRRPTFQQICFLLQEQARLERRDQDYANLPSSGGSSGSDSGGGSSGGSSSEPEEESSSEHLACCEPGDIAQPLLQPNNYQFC
Method: as §1, §2

[1] = biological target: T3, mouse CCR2 and mouse CSF1R co-expressed on the same ExpiCHO cells (mouse, UniProt P51683 1-373; P09581 20-977); experiment: flow cytometry on transiently transfected ExpiCHO cells expressing both mouse CCR2 and mouse CSF1R
T3 construct: whole, on cells; also called both mCCR2 and mCSF1R; CCR2 and CSF1R double positive cells
T3 sequence (P51683 whole entry, one chain of several): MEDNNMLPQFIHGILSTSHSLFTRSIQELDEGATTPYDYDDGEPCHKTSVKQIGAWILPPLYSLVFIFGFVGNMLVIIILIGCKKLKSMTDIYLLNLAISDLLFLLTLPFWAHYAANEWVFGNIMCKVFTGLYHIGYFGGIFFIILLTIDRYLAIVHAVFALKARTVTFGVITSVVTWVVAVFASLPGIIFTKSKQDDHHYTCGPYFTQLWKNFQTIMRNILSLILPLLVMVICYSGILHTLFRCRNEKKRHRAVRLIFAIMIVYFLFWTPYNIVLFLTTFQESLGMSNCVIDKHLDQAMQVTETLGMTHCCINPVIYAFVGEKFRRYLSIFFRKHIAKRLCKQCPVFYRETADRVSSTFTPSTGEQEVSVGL
Method: as §1, §2

T1 sequence (P51683 whole entry): as the sequence (P51683 whole entry, one chain of several) above

EC50 (mouse CCR2): 15 nM
EC50 (mouse CSF1R): 1 nM
EC50 [1]: 0.4 nM
B1: UniTI-01 (multispecific molecule #1), anti-CCR2/anti-CSF1R bispecific antibody (bispecific antibody)
heavy 1: QVQLQESGPGLVQPSQTLSLTCTVSGFSLTDFSVHWVRQPPGKGLEWMGRIRSEGNTDYNSALKSRLSISRDTSKSQVFLKMNSLQTEDTAIYFCTRGDILGFGYWGQGVMVTVSSAQTTAPSVYPLAPGCGDTTSSTVTLGCLVKGYFPEPVTVTWNSGALSSDVHTFPAVLQSGLYTLTSSVTSSTWPSQTVTCNVAHPASSTKVDKKVERRTIKPCPPCKCPAPNLLGGPSVFIFPPKIKDVLMISLSPIVTCVVVDVSEDDPDVQISWFVNNVEVHTAQTQTHREDYNSTLRVVSALPIQHQDWMSGKEFKCKVNNKDLPAPIERTISKPKGSVRAPQVYVLPPCEEEMTKKQVTLWCMVTDFMPEDIYVEWTNNGKTELNYKNTEPVLDSDGSYFMYSKLRVEKKNWVERNSYSCSVVHEGLHNHHTTKSFSRTPGK
light 1: DIVMTQSPLSVSVTPGESASISCRSSKSLLHFKGITFVYWYLQKPGQSPQLLIFRMSSLASGVPDRFSGSGSETDFTLKISRVEAEDVGTYYCGQLLENPYTFGAGTKLELKRADAAPTVSIFPPSMEQLTSGGATVVCFVNNFYPRDISVKWKIDGSEQRDGVLDSVTDQDSKDSTYSMSSTLSLTKVEYERHNLYTCEVVHKTSSSPVVKSFNRNEC
heavy 2: QVQLQQSGAELVKPGSSVKISCKASGYTFTSNFMHWIKQQPGNGLEWIGWIYPGDGDTEYNQKFNGKATLTADKSSSTAYMQLSSLTSEDSAVYFCAVNYGGYVLDAWGQGASVTVSSAETTAPSVYPLAPGTALKSNSMVTLGCLVKGYFPEPVTVTWNSGALSSGVHTFPAVLQSGLYTLTSSVTVPSSTWSSQAVTCNVAHPASSTKVDKKIVPRECNTIKPCPPCKCPAPNLLGGPSVFIFPPKIKDVLMISLSPIVTCVVVDVSEDDPDVQISWFVNNVEVHTAQTQTHREDYNSTLRVVSALPIQHQDWMSGKEFKCKVNNKDLPAPIERTISKPKGSVRAPQVCVLPPPEEEMTKKQVTLSCAVTDFMPEDIYVEWTNNGKTELNYKNTEPVLDSDGSYFMVSKLRVEKKNWVERNSYSCSVVHEGLHNHHTTKSFSRTPGK
light 2: EIVLTQSPTTMAASPGEKVTITCRASSSTNYMSWYQQKSGASPKPWIYETSKLASGVPDRFSGSGSGTSYSFTISSMETEDAATYYCHQWSSTPLTFGSGTKLEIKRADAAPTVSIFPPSMEQLTSGGATVVCFVNNFYPRDISVKWKIDGSEQRDGVLDSVTDQDSKDSTYSMSSTLSLTKVEYERHNLYTCEVVHKTSSSPVVKSFNRNEC
notes: Knob-in-hole heterodimer with one anti-CCR2 arm and one anti-mCSF1R arm
